The target in experiment [1] is T1, mCMKLR1 (Mus musculus, UniProt P97468).
T1 construct: expressed in transfected cells; host or cells: L1.2 mouse pre-B lymphoma cells
T1 sequence (P97468 1-371): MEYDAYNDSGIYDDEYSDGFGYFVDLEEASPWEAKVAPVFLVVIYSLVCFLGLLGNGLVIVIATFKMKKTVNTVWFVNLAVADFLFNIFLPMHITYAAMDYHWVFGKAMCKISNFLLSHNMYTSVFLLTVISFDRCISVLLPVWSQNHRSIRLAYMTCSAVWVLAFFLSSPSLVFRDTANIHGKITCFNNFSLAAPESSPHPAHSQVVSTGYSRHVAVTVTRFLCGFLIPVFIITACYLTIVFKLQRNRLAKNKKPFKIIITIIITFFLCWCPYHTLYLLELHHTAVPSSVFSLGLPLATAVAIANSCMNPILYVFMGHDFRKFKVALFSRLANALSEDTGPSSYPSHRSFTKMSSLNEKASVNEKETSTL
Kind of experiment: in vitro transwell chemotaxis, mCMKLR1-HA/L1.2 cells. In kind it is cell-based. The settings on record: range of doses. The procedure:
(§1) For migration experiments using cell lines, 2.5×10^5 cells/100 μl chemotaxis media (RPMI+10% fetal calf serum) were added to the top wells of 5-um pore transwell inserts (Costar, Corning, N.Y., USA), and test samples in 600 μl media were added to the bottom wells. After incubating the transwell plates for 1.5 hours at 37° C., the bottom wells were harvested and flow cytometry was used to assess migration. For primary cell chemotaxis, 1×10^6 cells/100 μl were added to the top well, and, following a 2 hour incubation at 37° C., polystyrene beads (15.0 μm diameter, Polysciences, Warrington, Pa., USA) were added to each well to facilitate normalization of the cell count. The cells were then stained for c-kit, F4/80, and/or CD11b expression and analyzed by flow cytometry. A ratio was generated and percent input migration was calculated.

Experiment [2] has as its target T2, mCCRL2 (Mus musculus, UniProt O35457).
T2 construct: The coding regions of mCCRL2, huCCRL2, mCRTH2, and huCCR10 were amplified from genomic DNA; expressed in transfected cells
T2 sequence (O35457 1-360): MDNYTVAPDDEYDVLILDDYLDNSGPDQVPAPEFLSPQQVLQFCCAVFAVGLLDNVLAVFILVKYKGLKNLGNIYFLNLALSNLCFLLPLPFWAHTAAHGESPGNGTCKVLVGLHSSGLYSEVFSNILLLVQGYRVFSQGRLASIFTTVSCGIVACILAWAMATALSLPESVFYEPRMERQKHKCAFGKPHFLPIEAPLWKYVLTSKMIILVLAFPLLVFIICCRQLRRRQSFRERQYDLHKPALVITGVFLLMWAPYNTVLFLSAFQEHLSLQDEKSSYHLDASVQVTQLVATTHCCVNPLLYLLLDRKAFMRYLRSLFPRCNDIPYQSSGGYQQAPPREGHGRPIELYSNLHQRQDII
The experiment in a line: chemerin internalization assay, mCCRL2-HA/L1.2 cells. In kind it is cell-based. Particulars: 10 nM His8-tagged serum form chemerin. How it is done:
(§2) The primary cells were also stained with F4/80 and c-kit mAbs. Secondary anti-His6 PE was added to the cells and incubated for 30 minutes on ice. […] The cells were incubated for 5 minutes on ice with either PBS or acid wash buffer (0.2 M acetic acid, 0.5 M NaCl), and then analyzed by flow cytometry. Mast cells were identified by gating on SSC^high F4/80^− c-kit^+ cells.

For experiment [3], the target named is T1, mCMKLR1. The experiment in a line: immunofluorescence-based chemerin-binding assay, mCMKLR1-HA L1.2. Particulars: 10 nM His8-tagged chemerin, anti-His6 PE.
The subject of experiment [4] is mouse peritoneal mast cells. The experiment in a line: chemerin internalization assay, peritoneal mast cells. Format: cell-based. Particulars: 10 nM His8-tagged serum form chemerin. How it is done: as §2
In experiment [5] the target is T3, huCCRL2 (Homo sapiens, UniProt O00421).
T3 construct: The coding regions of mCCRL2, huCCRL2, mCRTH2, and huCCR10 were amplified from genomic DNA; expressed in transfected cells
T3 sequence (O00421 1-344): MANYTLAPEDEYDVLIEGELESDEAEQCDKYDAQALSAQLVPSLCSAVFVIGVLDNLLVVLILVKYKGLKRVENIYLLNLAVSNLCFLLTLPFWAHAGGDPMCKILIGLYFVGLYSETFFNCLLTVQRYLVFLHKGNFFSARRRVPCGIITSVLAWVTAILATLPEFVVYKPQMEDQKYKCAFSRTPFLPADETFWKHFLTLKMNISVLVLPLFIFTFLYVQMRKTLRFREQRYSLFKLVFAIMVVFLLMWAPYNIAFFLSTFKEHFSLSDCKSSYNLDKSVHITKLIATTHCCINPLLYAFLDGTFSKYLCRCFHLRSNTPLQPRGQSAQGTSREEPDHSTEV
The experiment in a line: in vitro transwell chemotaxis, huCCRL2-HA/L1.2 transfectants. In kind it is cell-based. Particulars: range of doses; CXCL12 and CCL19 act via endogenous CXCR4 and CCR7. How it is done: as §1

Experiment [6] concerns the target T2, mCCRL2. Kind of experiment: in vitro transwell chemotaxis, mCCRL2/L1.2 transfectants. In kind it is cell-based. How it is done: as §1
Experiment [7] concerns the target T4, CCRL2 (Mus musculus, UniProt O35457).
T4 construct: TNFα-treated bEND3 cells acquire CCRL2 surface protein (but not CMKLR1 expression); endogenous in cells; host or cells: bEND3 mouse brain endothelioma cells treated 24 h with 20 ng/ml TNFα
T4 sequence (O35457 1-360): T2 sequence (O35457 1-360)
Kind of experiment: radiolabeled chemerin binding to TNFα-treated bEND3 cells. Particulars: cells treated 24 hours with 20 ng/ml TNFα. From the text: FIG. 22. […] Panel A. Robust upregulation of CCRL2 RNA by microarray analysis (Affymetrix®). Panel B. TNFα-treated bEND3 cells acquire CCRL2 surface protein (but not CMKLR1 expression) as determined by mAb staining and flow cytometry. Panel C. […] CCRL2/L1.2 and empty vector pcDNA3/L1.2 transfectants are shown as controls. The mean+/−SD of triplicate wells is shown for an individual experiment. A representative data set of 2 performed with similar results is shown for parts B and C, and n=1 for part A.
The cells were washed in PBS and stained with secondary anti-rat IgG PE or anti-mouse IgE PE (+goat IgG) for 30 min on ice, washed with PBS, stained with directly conjugated F4/80 and c-kit mAbs, and analyzed by flow cytometry. […] For competition binding assays, L1.2 cells transfected with huCCRL2, mCCRL2, or mCMKLR1 were plated into 96-well plates at 0.5×10^6 cells/well. […]. For saturation binding assays, mCCRL2/L1.2 cells were plated at 0.5×10^6 cells/well. […] Binding was terminated by washing the cells in saline buffer, and bound radioactivity was measured. Data were analyzed using Prism (GraphPad Software). Binding data (triplicate or quadruplicate wells) were fitted to one-site binding hyperbola for saturation assays, or to a one-site competition curve for competition assays. […] […].

In experiment [8] the target is T3, huCCRL2. Kind of experiment: immunofluorescence-based chemerin-binding assay, huCCRL2-HA L1.2. The settings on record: read-out: EC50, untagged chemerin vs His8-tagged chemerin binding; 10 nM His8-tagged serum form chemerin, 30 min on ice, anti-His6 PE.

Here are results for one substance from patent US20100092974A1, “METHODS FOR SCREENING FOR MODULATORS OF CCRL2” (The Board of Trustees of the Leland Stanford Junior …, priority 2008, published 2010).

In the case of “chemerin: protein ligand for signaling receptor CMKLR1; serum form human chemerin expressed in baculovirus-infected insect cells, His8-tag removed”, the transwell migration entry is on record as “robust, dose dependent migratory response” in experiment [1]; “neither human nor mouse CCRL2-HA/L1.2 transfectants migrated” in experiment [5]; “neither human nor mouse CCRL2-HA/L1.2 transfectants migrated” in experiment [6] (range of doses, CXCL12 and CCL19 act via endogenous CXCR4 and CCR7). The “acid resistant cell-associated chemerin” value in experiment [2] (5 min at 37° C.) is listed as “essentially no”; in experiment [2] (60 min at 37° C.), “very little”. In addition, the chemerin binding entry in experiment [3] is reported as “unable to detect”. Besides, the “chemerin internalization (acid wash)” value in experiment [4] was “did not internalize”. Also, in experiment [6] (CCL2 with chemerin), the “synergy of CCL2 and chemerin in transwell migration” value is “did not synergize”. In experiment [7], the “chemerin binding to TNFα-treated bEND3 cells” value is recorded as “bind”. In experiment [8], the EC50 was 7 nM.
